Assay results taken from paper PMC7839251.

Target: N-terminal fluorescein labeled ubiquitin E3 ligase WWP2 (FAM-WWP2)
Test: MST

Question: With “ubiquitin E2 conjugating enzyme UbcH5c (from UniProt P61077 1-147)” as the substance, how does the Kd read?
Answer: 9.6 µM
